Results from paper PMC5794981.

Target: aflibercept (Eylea) (human)
Assay: SEC; Superdex 200 Increase 10/300 GL, aflibercept diluted in PBS to 8 mg/ml, 77 ul injected, 25 °C; samples stored 0, 7 or 28 days

Sequence of aflibercept (Eylea) (Fc fusion) (chain): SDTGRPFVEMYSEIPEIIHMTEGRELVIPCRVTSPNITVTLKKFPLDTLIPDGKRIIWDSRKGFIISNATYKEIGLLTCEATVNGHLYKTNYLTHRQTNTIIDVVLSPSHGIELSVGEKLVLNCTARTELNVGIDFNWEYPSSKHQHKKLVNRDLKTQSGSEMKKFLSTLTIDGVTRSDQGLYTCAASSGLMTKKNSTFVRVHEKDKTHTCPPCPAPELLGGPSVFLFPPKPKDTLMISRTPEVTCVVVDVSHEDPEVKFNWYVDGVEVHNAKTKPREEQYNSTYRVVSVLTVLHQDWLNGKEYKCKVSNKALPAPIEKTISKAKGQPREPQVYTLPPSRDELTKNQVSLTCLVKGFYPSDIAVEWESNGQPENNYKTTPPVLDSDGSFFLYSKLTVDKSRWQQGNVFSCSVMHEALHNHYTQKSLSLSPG

For aflibercept (Eylea) (Fc fusion), which stoichiometry N is on record?
The stoichiometry N was 2.
